Data taken from the supplement of paper PMC7125110.
± gives the standard error. For some of these results: Fewer inactive variants are shown than the library holds.

B1: glmS ribozyme (parent)
chain: AUAAAAGCGCCAGAACUACAGAAAUGUAGUUGACGAGGAGGAGGUUUAUCGAAUUUUCGGCGGAUGCCUCCAAA

Legend:
Conditions in all cases: with glucosamine-6-phosphate
glucosamine-6-phosphate [1] = variants of: B1; test: kcat; higher = faster cleavage; RNA array
Outline: (§1)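 Glucosamine-6-phosphate, from 40 μM to 10 mM in HEPES/KCl/Mg(OAc)2 buffer, was flowed over sequenced MiSeq chips carrying barcoded ribozyme variants transcribed in situ by E. coli RNA polymerase. A hybridised Cy3 probe tracked the variants at 37 °C as tiles were imaged over ~14 h. kobs, kcat and KM were obtained by fitting normalised per-tile medians to exponential decays and then applying weighted Michaelis–Menten fits across concentrations.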

glucosamine-6-phosphate [2] = variants of: B1; test: KM; higher = weaker cofactor use; RNA array
Outline: as §1

glucosamine-6-phosphate [3] = variants of: B1; test: self-cleavage kobs at 160 uM GlcN6P; higher = faster cleavage; RNA array
Outline: as §1

glucosamine-6-phosphate [4] = variants of: B1; test: self-cleavage kobs at 640 uM GlcN6P; higher = faster cleavage; RNA array
Outline: as §1

glucosamine-6-phosphate [5] = variants of: B1; test: self-cleavage kobs at 2500 uM GlcN6P; higher = faster cleavage; RNA array
Outline: as §1

glucosamine-6-phosphate [6] = variants of: B1; test: self-cleavage kobs at 10000 uM GlcN6P; higher = faster cleavage; RNA array
Outline: as §1

glucosamine-6-phosphate [7] = variants of: B1; test: self-cleavage kobs at 40 uM GlcN6P; higher = faster cleavage; RNA array
Outline: as §1

Variant: AUAAAAGCGCCAGAACUACAGAAAUGUAGUUGACGAGGAGGAGGUUUAUCGACUUUUCGGCGGAUGCCUCAAAA [A53C C71A]
- kcat (glucosamine-6-phosphate [1]): 0.000797 ± 0.00016 s⁻¹
- KM (glucosamine-6-phosphate [2]): 1610 ± 520 µM
- self-cleavage kobs at 160 uM GlcN6P (glucosamine-6-phosphate [3]): 6.89e-05 ± 1.5e-05 s⁻¹
- self-cleavage kobs at 640 uM GlcN6P (glucosamine-6-phosphate [4]): 0.000254 ± 0.00011 s⁻¹
- self-cleavage kobs at 2500 uM GlcN6P (glucosamine-6-phosphate [5]): 0.000705 ± 0.00017 s⁻¹
- self-cleavage kobs at 10000 uM GlcN6P (glucosamine-6-phosphate [6]): 0.000613 ± 0.00013 s⁻¹

Variant: AUAAAAGCGCCAGAACUACAGAAAUGUAGUUGACGAGGAGGAGGUUUAUCGUAGUUUCGGCGGAUGCCUCCAAA [A52U U54G]
- kcat (glucosamine-6-phosphate [1]): 0.000276 ± 3.6e-05 s⁻¹
- KM (glucosamine-6-phosphate [2]): 3750 ± 860 µM
- self-cleavage kobs at 640 uM GlcN6P (glucosamine-6-phosphate [4]): 4.52e-05 ± 9.2e-06 s⁻¹
- self-cleavage kobs at 2500 uM GlcN6P (glucosamine-6-phosphate [5]): 0.000107 ± 1e-05 s⁻¹
- self-cleavage kobs at 10000 uM GlcN6P (glucosamine-6-phosphate [6]): 0.000207 ± 2.8e-05 s⁻¹

Variant: AUAAAAGCGCCAGAACUACAGAAAUGUAGUUGACGAGGAGGAGGUUUAUCGUAUUUUCGGCGGAUGCCUACAAA [A52U C70A]
- kcat (glucosamine-6-phosphate [1]): 5.6e-05 ± 1.2e-05 s⁻¹
- self-cleavage kobs at 160 uM GlcN6P (glucosamine-6-phosphate [3]): 3.06e-05 ± 1.5e-05 s⁻¹
- self-cleavage kobs at 640 uM GlcN6P (glucosamine-6-phosphate [4]): 3.63e-05 ± 1.3e-05 s⁻¹
- self-cleavage kobs at 2500 uM GlcN6P (glucosamine-6-phosphate [5]): 8.32e-05 ± 1.6e-05 s⁻¹
- self-cleavage kobs at 10000 uM GlcN6P (glucosamine-6-phosphate [6]): 4.7e-05 ± 1e-05 s⁻¹

Variant: AUAAAAGCGCCAGAACUACAGAAAUGUAGUUGACGAGGAGGAGGUUUAUCGUAUUUUCGGCGGAUGCCUUCAAA [A52U C70U]
- kcat (glucosamine-6-phosphate [1]): 0.00063 ± 0.0001 s⁻¹
- KM (glucosamine-6-phosphate [2]): 3490 ± 1100 µM
- self-cleavage kobs at 640 uM GlcN6P (glucosamine-6-phosphate [4]): 0.000122 ± 2e-05 s⁻¹
- self-cleavage kobs at 2500 uM GlcN6P (glucosamine-6-phosphate [5]): 0.000228 ± 3.4e-05 s⁻¹
- self-cleavage kobs at 10000 uM GlcN6P (glucosamine-6-phosphate [6]): 0.000483 ± 4.7e-05 s⁻¹

Variant: AUAAAAGCGCCAGAACUACAGAAAUGUAGUUGACGAGGAGGAGGUUUAUCGUAUGUUCGGCGGAUGCCUCCAAA [A52U U55G]
- kcat (glucosamine-6-phosphate [1]): 0.000246 ± 4.9e-05 s⁻¹
- KM (glucosamine-6-phosphate [2]): 2150 ± 980 µM
- self-cleavage kobs at 640 uM GlcN6P (glucosamine-6-phosphate [4]): 7.12e-05 ± 1.2e-05 s⁻¹
- self-cleavage kobs at 2500 uM GlcN6P (glucosamine-6-phosphate [5]): 0.000109 ± 1.5e-05 s⁻¹
- self-cleavage kobs at 10000 uM GlcN6P (glucosamine-6-phosphate [6]): 0.000221 ± 2.4e-05 s⁻¹

Variant: AUAAAAGCGCCAGAACUACAGAAAUGUAGUUGACGAGGAGGAGGUUUAUCGUAUUUUCGGCGGAUGCCCCCAAA [A52U U69C]
- kcat (glucosamine-6-phosphate [1]): 0.000239 ± 2.7e-05 s⁻¹
- KM (glucosamine-6-phosphate [2]): 1990 ± 540 µM
- self-cleavage kobs at 640 uM GlcN6P (glucosamine-6-phosphate [4]): 5.38e-05 ± 2.2e-05 s⁻¹
- self-cleavage kobs at 2500 uM GlcN6P (glucosamine-6-phosphate [5]): 0.000152 ± 3.9e-05 s⁻¹
- self-cleavage kobs at 10000 uM GlcN6P (glucosamine-6-phosphate [6]): 0.000191 ± 4.2e-05 s⁻¹

Variant: AUAAAAGCGCCAGAACUACAGAAAUGUAGUUGACGAGGAGGAGGUUUAUCGUAUUGUCGGCGGAUGCCUCCAAA [A52U U56G]
- kcat (glucosamine-6-phosphate [1]): 0.000175 ± 4.1e-05 s⁻¹
- KM (glucosamine-6-phosphate [2]): 5090 ± 2000 µM
- self-cleavage kobs at 640 uM GlcN6P (glucosamine-6-phosphate [4]): 2.83e-05 ± 1.1e-05 s⁻¹
- self-cleavage kobs at 2500 uM GlcN6P (glucosamine-6-phosphate [5]): 5.36e-05 ± 9.7e-06 s⁻¹
- self-cleavage kobs at 10000 uM GlcN6P (glucosamine-6-phosphate [6]): 0.000122 ± 2.5e-05 s⁻¹

Variant: AUAAAAGCGCCAGAACUACAGAAAUGUAGUUGACGAGGAGGAGGUUUAUCGUAUUUUCGGCGGAUGUCUCCAAA [A52U C67U]
- kcat (glucosamine-6-phosphate [1]): 0.000336 ± 2.3e-05 s⁻¹
- KM (glucosamine-6-phosphate [2]): 2300 ± 310 µM
- self-cleavage kobs at 640 uM GlcN6P (glucosamine-6-phosphate [4]): 7.82e-05 ± 1e-05 s⁻¹
- self-cleavage kobs at 2500 uM GlcN6P (glucosamine-6-phosphate [5]): 0.000163 ± 2e-05 s⁻¹
- self-cleavage kobs at 10000 uM GlcN6P (glucosamine-6-phosphate [6]): 0.00028 ± 2.8e-05 s⁻¹

Variant: AUAAAAGCGCCAGAACUACAGAAAUGUAGUUGACGAGGAGGAGGUUUAUCGUAUUUUCGGCGGGUGCCUCCAAA [A52U A64G]
- kcat (glucosamine-6-phosphate [1]): 0.000348 ± 8.9e-05 s⁻¹
- self-cleavage kobs at 2500 uM GlcN6P (glucosamine-6-phosphate [5]): 0.00023 ± 3.8e-05 s⁻¹
- self-cleavage kobs at 10000 uM GlcN6P (glucosamine-6-phosphate [6]): 0.000262 ± 3.6e-05 s⁻¹

Variant: AUAAAAGCGCCAGAACUACAGAAAUGUAGUUGACGAGGAGGAGGUUUAUCGUAUUUUCGGCGGAUGCUUCCAAA [A52U C68U]
- kcat (glucosamine-6-phosphate [1]): 0.000287 ± 4.1e-06 s⁻¹
- KM (glucosamine-6-phosphate [2]): 2080 ± 62 µM
- self-cleavage kobs at 160 uM GlcN6P (glucosamine-6-phosphate [3]): 1.96e-05 ± 8.9e-06 s⁻¹
- self-cleavage kobs at 640 uM GlcN6P (glucosamine-6-phosphate [4]): 6.72e-05 ± 8.8e-06 s⁻¹
- self-cleavage kobs at 2500 uM GlcN6P (glucosamine-6-phosphate [5]): 0.000158 ± 1.4e-05 s⁻¹
- self-cleavage kobs at 10000 uM GlcN6P (glucosamine-6-phosphate [6]): 0.000236 ± 2.4e-05 s⁻¹

Variant: AUAAAAGCGCCAGAACUACAGAAAUGUAGUUGACGAGGAGGAGGUUUAUCGACUUUUCGGCGGAUGCUUCCAAA [A53C C68U]
- kcat (glucosamine-6-phosphate [1]): 9.65e-05 ± 7.1e-06 s⁻¹
- KM (glucosamine-6-phosphate [2]): 858 ± 310 µM
- self-cleavage kobs at 640 uM GlcN6P (glucosamine-6-phosphate [4]): 3.67e-05 ± 7.7e-06 s⁻¹
- self-cleavage kobs at 2500 uM GlcN6P (glucosamine-6-phosphate [5]): 8.77e-05 ± 1e-05 s⁻¹
- self-cleavage kobs at 10000 uM GlcN6P (glucosamine-6-phosphate [6]): 8.67e-05 ± 5.3e-06 s⁻¹

Variant: AUAAAAGCGCCAGAACUACAGAAAUGUAGUUGACGAGGAGGAGGUUUAUCGACUUUUCGGCGGGUGCCUCCAAA [A53C A64G]
- kcat (glucosamine-6-phosphate [1]): 0.00338 ± 0.00072 s⁻¹
- KM (glucosamine-6-phosphate [2]): 1710 ± 540 µM
- self-cleavage kobs at 40 uM GlcN6P (glucosamine-6-phosphate [7]): 7.76e-05 ± 1.7e-05 s⁻¹
- self-cleavage kobs at 160 uM GlcN6P (glucosamine-6-phosphate [3]): 0.000218 ± 9.8e-05 s⁻¹
- self-cleavage kobs at 640 uM GlcN6P (glucosamine-6-phosphate [4]): 0.00177 ± 0.00058 s⁻¹
- self-cleavage kobs at 2500 uM GlcN6P (glucosamine-6-phosphate [5]): 0.00249 ± 0.0011 s⁻¹
- self-cleavage kobs at 10000 uM GlcN6P (glucosamine-6-phosphate [6]): 0.00277 ± 0.00054 s⁻¹

Variant: AUAAAAGCGCCAGAACUACAGAAAUGUAGUUGACGAGGAGGAGGUUUAUCGACUUUUCGGCGGUUGCCUCCAAA [A53C A64U]
- kcat (glucosamine-6-phosphate [1]): < 1e-05 s⁻¹
- self-cleavage kobs at 40 uM GlcN6P (glucosamine-6-phosphate [7]): < 1e-05 s⁻¹

Variant: AUAAAAGCGCCAGAACUACAGAAAUGUAGUUGACGAGGAGGAGGUUUAUCGUAUUUUCGGCGGAGGCCUCCAAA [A52U U65G]
- kcat (glucosamine-6-phosphate [1]): 9.59e-05 ± 1.1e-06 s⁻¹
- KM (glucosamine-6-phosphate [2]): 9460 ± 180 µM
- self-cleavage kobs at 40 uM GlcN6P (glucosamine-6-phosphate [7]): < 1e-05 s⁻¹
- self-cleavage kobs at 160 uM GlcN6P (glucosamine-6-phosphate [3]): < 1e-05 s⁻¹
- self-cleavage kobs at 10000 uM GlcN6P (glucosamine-6-phosphate [6]): 4.93e-05 ± 1.8e-05 s⁻¹

Variant: AUAAAAGCGCCAGAACUACAGAAAUGUAGUUGACGAGGAGGAGGUUUAUCGACUUUUCGGCGGAUGCCUUCAAA [A53C C70U]
- kcat (glucosamine-6-phosphate [1]): 0.00487 ± 0.0012 s⁻¹
- KM (glucosamine-6-phosphate [2]): 2220 ± 670 µM
- self-cleavage kobs at 40 uM GlcN6P (glucosamine-6-phosphate [7]): 0.000105 ± 1.2e-05 s⁻¹
- self-cleavage kobs at 160 uM GlcN6P (glucosamine-6-phosphate [3]): 0.000315 ± 2.6e-05 s⁻¹
- self-cleavage kobs at 640 uM GlcN6P (glucosamine-6-phosphate [4]): 0.000893 ± 0.00013 s⁻¹
- self-cleavage kobs at 2500 uM GlcN6P (glucosamine-6-phosphate [5]): 0.00403 ± 0.0007 s⁻¹
- self-cleavage kobs at 10000 uM GlcN6P (glucosamine-6-phosphate [6]): 0.00392 ± 0.00044 s⁻¹
